Test results reported in paper PMC3097204.

Legend:
[1] = target: mature SsTroA domain (residues 36–317) (Streptococcus suis serotype 2 (strain 05ZYH33)); experiment: SEC; analytical FPLC Superdex 200 profile of purified SsTroA
[2] = target: mature SsTroA domain (residues 36–317) (Streptococcus suis serotype 2 (strain 05ZYH33)); experiment: AUC; sedimentation velocity profiles analysed with SEDFIT; 1 mg/ml protein in 20 mM Tris-HCl (pH 8.0), 50 mM NaCl; 50,000 rpm, 20°C; monomer and dimer

**Q.** With “mature SsTroA domain (residues 36–317) (domain or fragment)” as the substance, how does the stoichiometry N [1] read?
**A.** 2

**Q.** What about the percent of the total protein in the dimer peak [2] of the same substance?
**A.** 6.8%

**Q.** What about the stoichiometry N [2] of the same substance?
**A.** 2
